Key:
HER3 ECD F409A (human) = HER3 ECD F409A (human) (UniProt P21860); experiment: FACS, HER3 ECD alanine mutants on cells
HER3 ECD R426A (human) = HER3 ECD R426A (human) (UniProt P21860); experiment: FACS, HER3 ECD alanine mutants on cells
Chain of HER3 ECD R426A (human) (P21860 20-643 R426A): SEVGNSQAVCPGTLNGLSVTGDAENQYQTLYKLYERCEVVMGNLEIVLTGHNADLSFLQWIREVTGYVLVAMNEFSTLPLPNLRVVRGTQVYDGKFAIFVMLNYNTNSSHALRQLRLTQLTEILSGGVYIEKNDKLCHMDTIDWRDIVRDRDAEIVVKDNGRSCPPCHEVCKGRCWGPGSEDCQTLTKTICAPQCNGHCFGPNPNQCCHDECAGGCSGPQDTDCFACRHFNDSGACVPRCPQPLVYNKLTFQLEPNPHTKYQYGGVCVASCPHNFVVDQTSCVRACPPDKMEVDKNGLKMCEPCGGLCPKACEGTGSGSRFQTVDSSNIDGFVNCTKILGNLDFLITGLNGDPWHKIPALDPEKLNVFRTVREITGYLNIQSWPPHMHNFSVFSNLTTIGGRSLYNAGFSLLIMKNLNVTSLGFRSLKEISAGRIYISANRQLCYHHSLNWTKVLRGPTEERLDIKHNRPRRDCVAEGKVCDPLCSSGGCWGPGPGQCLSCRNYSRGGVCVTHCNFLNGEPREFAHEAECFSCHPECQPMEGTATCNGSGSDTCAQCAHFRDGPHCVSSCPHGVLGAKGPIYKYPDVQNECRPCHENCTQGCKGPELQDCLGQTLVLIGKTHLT

Chain of HER3 ECD F409A (human) (P21860 20-643 F409A): as the sequence (P21860 20-643 R426A) above, with F390A, A407R counted along it

- Control mAb binding % of wt binding (% of wt binding) (HER3 ECD F409A (human)): 79.6
- Control mAb binding % of wt binding (% of wt binding) (HER3 ECD R426A (human)): 93.1
Substance: control mAb 66223 (antibody)

Reference: US10844127
